Reference: US20200277373A1, “ANTI-TREM2 ANTIBODIES AND METHODS OF USE THEREOF” (Denali Therapeutics Inc., priority 2017, published 2020)

How the values were obtained:
Format in all cases: cell-based
[1] = molecular target: T1, TREM2 (Homo sapiens, UniProt Q9NZC2); assay: PAM and single point pSyk screen, HEK293 TREM2/DAP12 cells, antibody with or without PS/PC liposomes
T1 construct: expressed in transfected cells
Procedure: Two days in advance of the experiment, HEK293 cells stably overexpressing TREM2 and DAP12 were plated at 40,000 cells/well on a 96 well poly-D-lysine-coated plate. In PAM experiments utilizing lipid vesicles, the lipid vesicles (see protocol below) were then mixed with the antibodies (at a constant concentration) on a 96-well plate using a Hamilton Nimbus liquid handler at a liposome concentration of 0, liposome EC20, EC50, or EC80 (see below) in PBS. In agonist experiments alone (no liposomes), antibodies were diluted without liposomes in PBS. The cells were washed 3× with HBSS with a Biotek 405/406 plate washer, then 50 μL of the liposome/antibody mixture was added per well using a Hamilton Nimbus liquid handler. The cell plate containing the liposome/antibodies was then transferred to a 37° C. incubator for 5 minutes. The liposome/antibody solution was removed by flicking the plate, and 40 μL lysis buffer (Cell Signaling Technologies, CST) was added using the liquid handler. […]
The liposomes were diluted in HBSS, and 50 μL of liposome solution was added per well to TREM2/DAP12-overexpressing cells using the Hamilton Nimbus liquid handler as in the above protocol. […] The pSyk response was measured as described above from 10 μL lysate, and the curve fit using a non-linear regression (4 parameter dose response) fit in Prism.

[2] = molecular target: T2, soluble TREM2 (sTREM2) (Homo sapiens, UniProt Q9NZC2); assay: Soluble TREM2 (TREM2 shedding) assay in HEK293 TREM2/DAP12 cells; parameters: key to STREM2: NC = no change; −− = reduced sTREM2; ++ = increased sTREM2; settings: change in sTREM2 levels
T2 construct: expressed in transfected cells
Procedure: HEK293 cells stably expressing human TREM2 and DAP12 were plated onto 96-well plates pre-coated with poly-D-lysine 4-16 hours prior to antibody treatment. Antibody supernatants or control antibodies were diluted into fresh complete media and added onto cells in triplicate. Cells were incubated with antibody containing media for 18 hours prior to removal of the cell supernatant for assay by TREM2 ELISA. Samples and standards were diluted 1:10 into blocking buffer (3% BSA/TBST) in the assay plate. Briefly, MSD small spot streptavidin plates were coated with biotinylated anti-hTREM2 polyclonal antibody (R&D Systems) overnight at 4° C. or 1 hour at room temperature. Plates were then blocked overnight at 4° C., or 1 hour at room temperature, with blocking buffer, 3% BSA/TBST. Plates were washed three times with TBST in a Biotek plate washer (used for all washes) prior to addition of diluent (blocking buffer) and denatured supernatants from cell culture. A TREM2-His protein diluted in 3% BSA/TBST was used as a standard for absolute quantification. Following 1 hour incubation at room temperature, plates were washed with TBST. The primary detection antibody, sulfo-tagged goat anti-human TREM2 (R&D Systems), diluted in 3% BSA/TBST was added and incubated for 1 hour at room temperature. After washing with TBST, MSD plates were developed using 2×MSD read buffer T, followed by detection using an MSD Sector plate reader. MSD values were converted to absolute quantities of sTREM2 by fitting a standard curve using Prism 7.0 software (Graphpad). Modulation of TREM2 shedding was represented as a ratio to cells cultured with no specific TREM2 antibody in the media.

[3] = tested on: human macrophages; assay: Signaling pathway Alpha-LISA (pSYK, pERK1/2, pGSK3-beta, pAKT) in human macrophages; settings: 15 minutes
Procedure: Anti-TREM2 antibodies were characterized for activation of several signaling pathways, SYK, ERK1/2, AKT and GSK3-beta. Human macrophages differentiated from peripheral monocytes were plated in 96-well plates at a density of 100,000 cell/well. The assay was tested in three conditions (0%, 0.5%, and 10% FBS in the media) for 3 hours. Cells were stimulated with the antibody RS9.F6, 24B4.A1, 8A11.B1, 3D3.A1, 54C2.A1, isotype control IgG2ak, rat anti-TREM2 from R&D, isotype control rat IgG2b, or no treatment (NT) for 15 minutes. The cell lysates were measured for p-Y525/526-SYK, p-T202/Y204-ERK1/2, p-S9-GSK3-beta, and p-S473-AKT using Alpha-LISA kits (Perkin Elmer). […] The antibodies stimulated p-GSK signal moderately (FIG. 6C).

T2 sequence (Q9NZC2 19-230): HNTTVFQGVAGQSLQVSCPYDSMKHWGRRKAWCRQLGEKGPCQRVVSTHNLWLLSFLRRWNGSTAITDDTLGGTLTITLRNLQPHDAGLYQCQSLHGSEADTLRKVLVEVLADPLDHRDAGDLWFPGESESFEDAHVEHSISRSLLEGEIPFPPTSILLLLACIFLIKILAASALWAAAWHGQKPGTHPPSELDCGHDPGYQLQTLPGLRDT
T2 sequence (O43914 22-113 partner): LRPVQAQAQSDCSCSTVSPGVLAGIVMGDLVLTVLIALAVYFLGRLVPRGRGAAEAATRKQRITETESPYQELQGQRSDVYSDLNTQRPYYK
T1 sequence (Q9NZC2 19-230): as the sequence (Q9NZC2 19-230) above
T1 sequence (O43914 22-113 partner): as the sequence (O43914 22-113 partner) above

B1: 21D11: anti-TREM2 antibody clone; VH SEQ ID NO:14, VL SEQ ID NO:25 (antibody, V domains shown)
VH: QVQLQQSGAELARPGASVKLSCKASGYTFTSYWIQWVKQRPGQGLEWIGTIYPGDGDARYTQKFKGKATLTADKSSSTTYMQLNSLASEDSAVYYCARNGITTAGYYAMDYWGQGTSVTVSS
VL: DIQMTQSPASLSVSVGETVTITCRASENIYSNLAWYQQKQGRSPQLLVYAATNLADGVPSRFSGSGSGTQYSLKINSLQSEDFGYYYCQHFWGTPYTFGGGTKVEIK
In the case of B1, the “p-Syk induction by antibody alone (in words)” value ([1]; no liposomes, HEK293 TREM2/DAP12) is reported as “do not induce p-Syk” and the STREM2 [2] is reported as “NC”.

B2: RS9.F6: anti-TREM2 antibody clone; VH SEQ ID NO:24, VL SEQ ID NO:35 (antibody, V domains shown)
VH: QVQLQQPGAELVKPGASVKLSCKASGYTFTSYWMHWVKQSPGRGLEWIGRSDPTTGGTNYNEKFKTKATLTVDKPSSTAYMQLSSLTSDDSAVYYCVRTSGTGDYWGQGTSLTVSS
VL: DVVMTQTPLSLPVSLGDQASISCRSSQSLVHNNGNTFLHWYLQKPGQSPKLLIYKVSNRFSGVPDRFSGSGSGTDFTLKISRVEAEDLGVYFCSQTTHVPPTFGGGTKLEIK
With B2 the p-SYK signal [3] was “robust”, the pERK1/2 signal [3] was “robust” and the STREM2 [2] was “NC”.

B3: 3D3.A1: anti-TREM2 antibody clone; VH SEQ ID NO:18, VL SEQ ID NO:29 (antibody, V domains shown)
VH: EVQLQQSGPELVKPGASVKISCKTSGYTLSEYTMHWVIQSHGKSLEWIGGVIPNSGGTSYNQKFRDKASLTVDKSSSTAYLELRSLTSEDSAVYYCARGDDSYRRGYALDYWGQGTSVTVSS
VL: DIVMSQSPSSLAVSVGEKVTMSCKSSQSLLYSSNQKSYLAWYQQKPGQSPKLLIYWASTRESGVPDRFRGSGSGTDFTLTISSVKAEDLAVYYCQQYFSYPPTFGGGTKLEIK
For B3, the “interaction with lipid ligand to activate p-Syk (in words)” value ([1]; FIG. 9A, 30 nM antibody, PS/PC liposomes, HEK cells) was “additive with lipid TREM2 activators”, the p-SYK signal [3] was “robust” and the pERK1/2 signal [3] was “robust”. The STREM2 [2] was “NC”.
